According to PMC7378325:

Target: GFP-GABAB1b
Assay: FRET or BRET; two-photon FLIM; GFP donor, t-dimer DsRed acceptor; transfected rat spinal neurons in culture, fixed; treated with baclofen (10^-9 to 10^-3 M) or GABA (10^-4 M), with exogenous fibulin-2 protein (25 or 50 nM), co-transfected fibulin-2 or anti-fibulin-2 siRNA; mean FRET efficiency ± …

B1: DsRed-GABAB2 (receptor)
chain: WTRGAPRPPPSSPPLSIMGLMPLTKEVAKGSIGRGVLPAVELAIEQIRNESLLRPYFLDLRLYDTECDNAKGLKAFYDAIKYGPNHLMVFGGVCPSVTSIIAESLQGWNLVQLSFAATTPVLADKKKYPYFFRTVPSDNAVNPAILKLLKHFRWRRVGTLTQDVQRFSEVRNDLTGVLYGEDIEISDTESFSNDPCTSVKKLKGNDVRIILGQFDQNMAAKVFCCAFEESMFGSKYQWIIPGWYEPAWWEQVHVEANSSRCLRRSLLAAMEGYIGVDFEPLSSKQIKTISGKTPQQFEREYNSKRSGVGPSKFHGYAYDGIWVIAKTLQRAMETLHASSRHQRIQDFNYTDHTLGKIILNAMNETNFFGVTGQVVFRNGERMGTIKFTQFQDSREVKVGEYNAVADTLEIINDTIRFQGSEPPKDKTIILEQLRKISLPLYSILSALTILGMIMASAFLFFNIKNRNQKLIKMSSPYMNNLIILGGMLSYASIFLFGLDGSFVSEKTFETLCTVRTWILTVGYTTAFGAMFAKTWRVHAIFKNVKMKKKIIKDQKLLVIVGGMLLIDLCILICWQAVDPLRRTVERYSMEPDPAGRDISIRPLLEHCENTHMTIWLGIVYAYKGLLMLFGCFLAWETRNVSIPALNDSKYIGMSVYNVGIMCIIGAAVSFLTRDQPNVQFCIVALVIIFCSTITLCLVFVPKLITLRTNPDAATQNRRFQFTQNQKKEDSKTSTSVTSVNQASTSRLEGLQSENHRLRMKITELDKDLEEVTMQLQDTPEKTTYIKQNHYQELNDILSLGNFTESTDGGKAILKNHLDQNPQLQWNTTEPSRTCKDPIEDINSPEHIQRRLSLQLPILHHAYLPSIGGVDASCVSPCVSPTASPRHRHVPPSFRVMVSGL
B1 was tested, and the FRET efficiency (baclofen 10^-6 M) was 51.2% and the FRET efficiency (baclofen 10^-6 M, fibulin-2 co-transfected) was 53%.
